Assay results published in a protein production outcome set (Wang et al. 2014).

Experiment: label from the status in PepcDB records
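Further: failed if final PepcDB status was selected cloned or expressed and not failed if soluble or beyond.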

Sequence	protein production
MNAIGLVGFAFVGAAKAIEERYDVFGVTVVGVMTALGGGTTRDLLLNRVPNSLQSPGEVALSLLGVTAAVLFVHFLDDGHQHPVVLTADAIGLAAFTTTGALLGQQAGLPVFAVVALATVNAAGGGAISDLLLGRTPFILREDFYASCAVIGGLAFWALAQIGVSVSVASAGCALAVLLARGLGIGRGWSLPTVQAWERRDAQ	failed
MKTKNKILPEQEEEKTFQYRTYGKGELALLYLPNILQQSAVDRFNEWIEAAPGLKERLLATGMNPRARYYTPAQVRLIIEVLQEP	failed
MLHKRASEANDKNDNTIIGSDLASSKKRRIDFTESSSDKSSSILASGSSRGFHGDSVVQQIDMAFGNSNRQEIDEDLHSRQLAVYGRETMRRLFASNVLISGMHGLGAEIAKNLILAGVKSVTLHDERVVELWDLSSNFVFSEDDVGKNRADASVQKLQDLNNAVVVSSLTKSLNKEDLSGFQVVVFSDISMERAIEFDDYCHSHQPPIAFVKADVRGLFGSVFCDFGPEFAVLDVDGEEPHTGIIASISNENQAFISCVDDERLEFEDGDLVVFSEVEGMTELNDGKPRKIKSTRPYSFTLDEDTTNYGTYVKGGIVTQVKQPKLLNFKPLREALKDPGDFLFSDFSKFDRPPLLHLAFQALDHFKAEAGRFPVAGSEEDAQKLISIATAINTGQGDLKVENVDQKLLRHFSFGAKAVLNPMAAMFGGIVGQEVVKACSGKFHPLFQFFYFDSVESLPSEPVDSSDFAPRNSRYDAQISVFGAKFQKKLEDAKVFTVGSGALGCEFLKNLALMGVSCGSQGKLTVTDDDIIEKSNLSRQFLFRDWNIGQAKSTVAASAAAVINPRFNIEALQNRVGAETENVFDDAFWENLTVVVNALDNVNARLYVDSRCLYFQKPLLESGTLGTKCNTQSVIPHLTENYGASRDPPEKQAPMCTVHSFPHNIDHCLTWARSEFEGLLEKTPAEVNAYLSSPVEYTNSMMSAGDAQARDTLERIVECLEKEKCETFQDCLTWARLRFEDYFVNRVKQLIYTFPEDAATSTGAPFWSAPKRFPRPLQYSSSDPSLLNFITATAILRAETFGIPIPEWTKNPKEAAEAVDRVIVPDFEPRQDAKIVTDEKATTLTTASVDDAAVIDDLIAKIDQCRHNLSPDFRMKPIQFEKDDDTNYHMDVIAGLANMRARNYSIPEVDKLKAKFIAGRIIPAIATSTAMATGLVCLELYKVLDGGHKVEAYRNTFANLALPLFSMAEPLPPKVVKHRDMAWTVWDRWVLKGNPTLREVLQWLEDKGLSAYSISCGSCLLFNSMFTRHKERMDKKVVDLARDVAKVELPPYRNHLDVVVACEDEDDNDVDIPLVSIYFR	failed
MSNMEKHLFNLKFAAKELSRSAKKCDKEEKAEKAKIKKAIQKGNMEVARIHAENAIRQKNQAVNFLRMSARVDAVAARVQTAVTMGKVTKSMAGVVKSMDATLKTMNLEKISALMDKFEHQFETLDVQTQQMEDTMSSTTTLTTPQNQVDMLLQEMADEAGLDLNMELPQGQTGSVGTSVASAEQDELSQRLARLRDQV	not failed
MNEPLHLYVHIPFCLKKCRYCSFVSRSDAPLAIDDYASLVAREMEMRVAAANPLPLSPATTLYLGGGTPSLLSPAALERIIDAAARSYGLGPGAEITLEANPGTVTFQRLADFRSAGVNRLSLGVQSFDDGMLVLLGRLHTARQAREAVAATRRAGFDNIGIDLIHSLPGQTPDQWREQLACAVALNPDHVSAYGLTVEEGTPFAAMEERGELVLPDEEQSALMFEATTDVLVSAGFEHYEIANFARPHRRSRHNQVYWLRRNYLGFGAGAHSFLRAPAFGVRWKNTDDLELYRDTLAAAELPGEERTVLSRADAMAEFFFLGLRLLDGVREEDFVREFGDTMENVYGREMERLCSAGLLMREGGRLKLSRRGVILANRVFASFL	failed
MVVVCASHIQPAIICRFTWLRFLMEIILIRHGKPTSANNPVLNAVDFTKWVRRYNFSDVSTNSRPDSILDEYKSHYIVSSDLERAIHSASIYTGQSPELTSKLYREMEIPRYKFPLRFKAMTWVYINRAFWMLGLKGSFESYRQAKIRAELASDHLVELAREQDKVILFGHGYLNLHIRRSLIKKGWKLNSKSNGFWGISSLEGLEHHHHHH	failed
MPPQRRRRPEPEAPAPGRRGRRPEKKKSRGKRVLLWTGGSMAFVVLVAGVGGYVYLKHLEGNVSTTDVGTAGSSSFKKDEAFNILIIGTDKRTGEGNEGYGDKGSAGHADTNILLHVAEDRSNATALSIPRDLIVDIPDCETTQEDGTKKVIPGTSGVRFNQSLGDFGRDAGCTMRTVAETTGIKPDHFMMADFNAVKTLTTAVDGVDVCVEHAVDDPKSHLKLPAGESKVEGEQALAFVRTRHAFGNEGDLDRIKVQQQFLGSLMRKMASGDTLTSPTKLVKLAEAATKALTVDSAIGKVGTLKDIALELKKVPTKNITFTTVPVIDNPAEKVKATVVVNEAKGPQVFDMIKNDISFTEVEQQKKKEKAAVAARLKGEKSEPGEVRVRVMNGGAPAGSAQQELAYLQTQAGVSKSENAGNAPADIAKTTLEYAPDQADQARALAEILGLTGAAMKPGESVTNSQGLPTMTLTLGKDFKGAGVKLDGSVKKPDLDTESTADQKLCAS	failed
MRNKLLFLALPLLFGLQASAQHTQAFQDTTLTDEQRVEHLLSILTLDEKINLLSTDLGVPRLNIPRCGHYEGLHGLTLGGPAMWGGRQRTEDGKVVPTDCPTTIFPQSYGLGSTWDTDLVQKVAEQAAEEARYYMQTTGNKRHALVMRAPNADLARDPRWGRTEESFGEDAFLTAQLTIASVRGLQGNHPRYWKTASLMKHFLANSNEDGRDSTSSDFDTRLFHEYYAYPFYKGITEGGSRAFMAAYNSWNGIPMSIHPCLEEITRKQWGNNGIICTDGGALKLLIEAHKSFPSFAEGAAAVVKATTGQFLDAYVPYVKEALEKGLLTEVDIDKAIRGNIFVALKLGLLDGDNSRNPYLSIGKNSTETPPFMTAEARRLAREVTAKSVVLLKNKKLLPLDAGKLRKIAVIGPYSDKIVQDWYSGTPPYETTILSGIRNAVKEGTEIIHAEDNRMGQAEKAAAAADVAIVCVGNHPYGTRADWKFSPVPSDGREAVDRKSLMLPDEDLVKLVLKANPNTILVLVSSFPYTINWSQEHVPAIVHITHCSQEQGNGLADVLFGKVNPAGRTVQTWVKDITDLPDIMDYDIRNGRTYMYHQGPVLYPFGYGLSYSDFTYEKIESVKQDKKNIRVTVSVKNTSGRDGEEVVQLYASYPDSKVERPSKQLRAFRRIPIKAGETRKVTLTVPKEELGYWNEGKQMFVVEPGTVKLLIGASSEDIRLEGKIRL	failed
MDHIRTHNTHHARKSADHLCVITDGGVSAIDRVSQRNIRVRLGAEHHDQLFCQAHGLKRLLPGKSIDLHKDKKWRTLICSITKNPETSMTPDAARKNSPEMKPRKKKKRQFRQLFARSLQRLARTRSGSAEFSGPLRSVAILAQEKLGDCVLLTPLVRNLRQAFPDLEIHLITFSRASANFFMNDPQVTAVHLVKKQPRRYFREVLSRKFDLLFNTKDHPSTWFLLQSALIRARFKVGHNNPFHEGLYDRLLDTEFHAHMAVKNCALLPLLGVTADTEACRPSLPAMPVSNEIWQLLSRLAEDIRPIGVNISAGEPNRLWTEAKWRALLERFPGERFVVLSGPDDLDAKRRLEEQCPNAVASPPTRNLYEASCIVAKLRLLVTPDTSMVHVASATGTPVAGLYREAPQDISRFGPYAIPYEIVISPTGEVSGIKPESVADAVRRLMARAIGREA	failed
MKRLTPYSWLILIIFSSCLTGNKVASTDKQIESLLSQMTLEEKIGMLHSNTMFSSTGVPRLGIPDLHYSDGPHGVRFEGVANGWESARWDNDACSYLPALSALASTWNRDLAQLYGEVLGAECKARGKHVSLAPGVNIHRSLLNGRNWEYFSEDPFFSGELAVPYIQGVQSQGVASCVKHFALNSQAYNQYKVSVEVDERTLHEIYLPAFEAAIQRGGAMAAMAAYNKVRGLWCTESPYLLDTLLRDELGFDGLVVSDWNAVHNTERTALCGMDVEMGTSIKENGKYAFNKYYLADPLLKKVRNGEIPEEAVNKKVRNILKLMIRLDLIGQAPYDTTGMAAKLAIPAHTKAAREIAEESLVLLKNSKDMLPLDPAQYKNVAVIGANATEVFAAGGGSTKLKAKYEVTPLEGLQNLLDGKARIEYAPGYQLSKKAYKVGHWFTNEFDKSDEELYKKAINTAAQAELVIYIGGTSHEHGSDCEGYDKPNLKLPYQQDRLLKGILEVNPNTVVVLISGGPVEIGEWYNDATALLHGSFLGMEGGNALARTLFGEVNPSGKLTTTWCKRLEDMPDHVFGEYPGINDTVRFKEGLMVGYRYFDTYRVVPLFEFGYGLSYTTFTYSNIKMKPVWKDSDTEFAVSFTVTNTGKRYGQEIAQLYLHQNKCSVERPFKELKGFTKVGLKPGESKQVTIKLPRRALQYYDTESKRWKDEPGMFTVLIGASSRDIKLQKDFELKK	failed
MILQDARIDVPYTVVSINLPEDSVRHLSNLGLKVGSRLELISKTKSSAIVMLKSSRLAFDDSILSKIDVSESQETVETLPLSELEVGQFAYIDNIFAVNEAKRRLMDMGLTRHTKIYLRKVAPLGDPIEISLRGYELTLRKSEAQMISVVKIDNQEEKLEHHHHHH	not failed
MAKIKKYTTKTGKIRYEFQVYAGVDSLTGRQKTTRRRGFKTRKEASIVLSRLELEIEKRGLQEDERRFFRDVCAEWMEQYRLTVRESTLEKTQRIINIHVLPAFGDMVINNITPNVCQKVVNKWFLEAKSYKKWLNYASMIFDYALRAEYVGRNPCTLVTMPRVQEQAGEKLENFWTRDELNTFFDYVTPERDVEQFTMFRVLAYSGIRKGELLALTWKDINFEDNTLRVNKTLTQGLGGKLIVQPPKSRAGRRTIDLDDSTMRYLRQWKGVQRETFLGMGFNTNNVDQLVFASNRNHFRSMNTPTKWLNKAIKATGLKHISIHGFRHTHASLLYQSGVGLKETQQRLGHSRADSSVTLDVYTHTTEQQNVAALQRFENYVEAK	failed
MIIGIDLGTTNSAVAYIDDSGNPTILPNREGERVTPSVIFFEDGSPVIGSTAKSISVSDPTNTVQFVKRQMGNASYKFPIGGEVFTPEDLSALILKRLKEDAEEAIGAKVTKAVITVPAYFDDAQRKATQDAGRIAGLHVLKVINEPTAAALAYGLANREQKQNVMVYDLGGGTFDVTLIQLNQDEVVVKATGGDRNLGGFDFDNKIFELVEQKFEEEHGLDLYDDLNAVQDLREKAEACKKMLSSRKKSVITLSSQGRTVKVEVTKEKFDELLSPLLSRTALIMKNVLMDAELSWGDIDKIVLVGGSTRVPAVSDLIERTTGIKPSKDVNPDEVVALGAAIQGSLLQVDNEASNNAEEFKPKTRVVDVNSHSLGILIHDNNTGGFINQKMIVRNTPIPASEEAVFYTVNDGQTSLHVQVTEGEDSDPDFVKVIGESNLDLRGSKPQGYPVRFIFTYDENGVVHVYGKDENTGQHLGEMQIERKSNLTEAAIEKKAEKLAGISVE	failed
MQPTGNQIQQNQQQQQQLIMRVPKQEVSVSGAARRYVQQAPPNRPPRQNHQNGAIGGKKSSVTIQEVPNNAYLETLNKSGNNKVDDDKLPVFLIKLWNIVEDPNLQSIVHWDDSGASFHISDPYLFGRNVLPHFFKHNNMNSMVRQLNMYGFRKMTPLSQGGLTRTESDQDHLEFSHPCFVQGRPELLSQIKRK	not failed
MELLLGIVIVVTCWMVVRIIRSSKNQEGYKRWRAGNYASENPYAKEKASGPLSQGLFSKRVRTTGVRRFDDGAIRWCANLLATEESRLREVLDYIPRQYTCFHVRKRSGGFRYISAPAGDFRSMQQTIYHRILLLANIHPAVTGFCPGKSVSDNARVHLGRKNVLKVDLHDFFPSIRSPRVRAAFREMGYSRPIAKVLAELCCLRCCLPQGAPTSPALSNIIAYPMDKKMMALAGEYGLVYTRYADDLTFSGDYLPKDEVLVRIHRIIREEGFTMNVKKTRFLSEHKRKIITGVSVSSGKKMTLPKVKKREIRKNVHYVLTKGLVGHQEHIGSTDPVYLKRLLGSLCYWRSIEPDNRYVSDSITALKRLM	failed
MLVLDVAARVWPFFLLVAAGVALSRLRLLDARMTQGLSAYVYWVGFPALLIHSLSRLGRPGPELWSGLAAYAAVGLAVMASLVVGGRALGWSRPERAGAAMAAGVGNSAFLAVPVTAAVLGAETARLVAGAIAADFVVLAAAGVGLLGWAAGRSVWRAMAQAFQNPVVIAALLGLLLALLNLALPQPLDRAVGLAAASGSPVGLVALGAALGLPQTEDEPGPRAGPVVLAALAKLLAFPLLVWLAIGLTPAPAEFRTGATLVAAAPTAVNVFIQTRAYGVWPRGAARIVALTTALAIVSLSLVAILLTARVS	failed
